Measured values as given in the RNAGym collection of RNA variant scans (doi:10.7554/elife.90254).

B1: LINE1-full (parent)
chain: UACGUAGGUGGUUUUCCCCUGAUAGUGCUAAGGGGGCCUGGAAGUUUGGACUGGGCAGAGCUCAACACAGCGUGGCAAAGUGGCUGUGGCUAGACUGCCUCUCUGGAUUCCUCGUCACUCAGCAGGGCAUCUCUGAGAGAAAUGCC

Variants of: B1
Test: self-cleavage, relative activity (ratio to wild type); higher = more cleavage; in vitro, sequencing; the parent is a self-cleaving ribozyme

| Variant | self-cleavage |
| --- | --- |
| A67G U115G | 1.22 |
| A67G U115C | 0.55 |
| A67G U115A | 0.61 |
| C68A U73C | 0.05 |
| A67U A69U | 0.04 |
| A67G C84U | 0.04 |
| A67G C84G | 0.04 |
| A67C U96C | 0.12 |
| A67G U134C | 0.56 |
| A67G C113A | 0.45 |
| A67G C113U | 0.44 |
| A67C U108C | 0 |
| A67U U85C | 0.01 |
| A67U U102C | 0.1 |
| A67U U102A | 0.11 |
| C68A C146U | 0.06 |
| A67G A79C | 0.48 |
| A67G A79U | 0.73 |
| A67U C146A | 0.14 |
| A67G U91C | 0.16 |
| A67G G114C | 0.49 |
| A67G G114A | 0.38 |
| A67G C111U | 0.54 |
| A67G C111A | 0.58 |

| Variant | self-cleavage |
| --- | --- |
| A67U G74A | 0.08 |
| A67U C71U | 0.02 |
| C68U A129G | 0.06 |
| A67U U109A | 0.11 |
| A67U U109C | 0.04 |
| C68A A124G | 0.05 |
| A67U C103A | 0.15 |
| C68A A69G | 0.07 |
| A67G U109C | 0.16 |
| C66U U102A | 0.06 |
| A67C C71A | 0.02 |
| A67U U115C | 0.34 |
| A67U A117U | 0.1 |
| A67U U119C | 0.19 |
| C68U A124U | 0.28 |
| A67G A69G | 0.31 |
| C66U U100C | 0.07 |
| A67G A124U | 0.49 |
| C66U U109A | 0.03 |
| A67U U104A | 0.03 |
| A67U U104C | 0.25 |
| A67U G105U | 0.12 |
| A67C U87A | 0.05 |
| A67U C128U | 0.1 |

| Variant | self-cleavage |
| --- | --- |
| A67G C99U | 0.27 |
| A67G G89U | 0.02 |
| A67U G75A | 0.09 |
| A67C U115A | 0.04 |
| A67G A121U | 0.51 |
| A67G A121G | 0.53 |
| A67G G88A | 0.05 |
| C68A U109C | 0.06 |
| A67C A136G | 0.12 |
| A67G U130A | 0.54 |
| A67G U130C | 0.65 |
| A67C U104C | 0.04 |
| A67U U73C | 0.18 |
| A67C G72U | 0.06 |
| A67U A121G | 0.15 |
| A67U A121C | 0.2 |
| A67G C68A | 0.05 |
| A67G C133A | 0.41 |
| A67G G74A | 0.45 |
| A67G C120U | 0.45 |
| A67U U96A | 0.02 |
| A67G U100C | 0.4 |
| A67G A141G | 0.38 |
| A67G U119A | 0.31 |

| Variant | self-cleavage |
| --- | --- |
| A67G U119C | 1.07 |
| A67C A141G | 0.12 |
| C68U A141G | 0.3 |
| A67U A142G | 0.15 |
| A67U A142U | 0.14 |
| A67U A136G | 0.2 |
| A67U A136U | 0.12 |
| A67G U102C | 0.58 |
| A67G U102A | 0.99 |
| A67U U81A | 0.07 |
| C66U G75A | 0.04 |
| A67G A92G | 0.09 |
| A67G A92U | 0.41 |
| A67G A78G | 0.27 |
| A67G U143G | 0.37 |
| A67G A94G | 0.09 |
| C68G A141G | 0.04 |
| A67U A140U | 0.08 |
| A67U A140G | 0.09 |
| A67U U130A | 0.13 |
| A67G G93A | 0.02 |
| A67G G93U | 0.11 |
| A67G U96C | 0 |
| A67G U96A | 0.06 |

| Variant | self-cleavage |
| --- | --- |
| A67U A77G | 0.17 |
| A67U A77U | 0.04 |
| A67G U87A | 0.12 |
| A67U U87C | 0.21 |
| A67C A117C | 0.03 |
| A67C A138U | 0.03 |
| A67U C133U | 0.1 |
| C66U U134C | 0.06 |
| C66U U143C | 0.03 |
| A67G G80A | 0.79 |
| C68U A117G | 0.12 |
| C68U A117U | 0.25 |
| A67G U81C | 0.35 |
| A67G A129U | 0.04 |
| A67G A129G | 0.45 |
| A67G A136U | 0.4 |
| A67G A136C | 0.38 |
| A67G A136G | 0.67 |
| A67U G88U | 0.02 |
| C66U A141G | 0.03 |
| C68A U87A | 0.01 |
| A67G U104C | 0.96 |
| A67U | 0.11 |
| A67G | 0.5 |

| Variant | self-cleavage |
| --- | --- |
| A67C | 0.06 |
| A67G A77U | 0.3 |
| A67G U112A | 0.53 |
| A67G U112C | 0.39 |
| A67U U108A | 0.16 |
| A67U A141G | 0.13 |
| A67G G126A | 0.58 |
| A67C U73C | 0.22 |
| A67U U143C | 0.2 |
| C68G A121C | 0.03 |
| C66U C111U | 0.04 |
| A67G G137A | 0.64 |
| A67C U119C | 0.09 |
| A67G A140U | 0.56 |
| A67U C84U | 0.02 |
| A67U A107G | 0 |
| C68U A77G | 0.24 |
| C66U U96A | 0.02 |
| A67C G135U | 0.05 |
| A67C A78U | 0.07 |
| A67U U134A | 0.08 |
| A67G A107U | 0.92 |
| A67G A107G | 0.25 |
| A67G C131U | 0.56 |

| Variant | self-cleavage |
| --- | --- |
| A67C G82A | 0.05 |
| C66U A142G | 0.05 |
| A67U C131A | 0.13 |
| A67U A124C | 0.17 |
| A67U A124G | 0.02 |
| A67G U132C | 0.62 |
| A67G A142C | 0.93 |
| A67G A142G | 0.46 |
| A67G G122A | 0.54 |
| A67C U102C | 0.04 |
| A67U A79U | 0.21 |
| A67U A79G | 0.18 |
| C66U U130C | 0.05 |
| A67C C123A | 0.07 |
| C68U A140U | 0.22 |
| C68U A140G | 0.16 |
| A67C C110A | 0.05 |
| A67G G125U | 0.39 |
| A67U U112A | 0.13 |
| C66U U85C | 0.02 |
| A67U A94U | 0.05 |
| A67G A117G | 0.52 |
| A67G A117U | 0.53 |
